Source: patent publication US5993823

What was measured:
[1] = biological target: SIV GAG 165-185 peptide on autologous macaque B-LCL (SIV; rhesus macaque (Macaca mulatta))
[2] = biological target: SIV GAG 165-195 peptide (LP6) on autologous macaque B-LCL (SIV; rhesus macaque (Macaca mulatta))
[3] = biological target: SIV GAG 176-195 peptide on autologous macaque B-LCL (SIV; rhesus macaque (Macaca mulatta))
[4] = biological target: SIV NEF 155-178 peptide (LP3) on autologous macaque B-LCL (SIV; rhesus macaque (Macaca mulatta))
[5] = biological target: SIV GAG 246-282 peptide (LP7) on autologous macaque B-LCL (SIV; rhesus macaque (Macaca mulatta))
[6] = biological target: SIV NEF 155-169 peptide on autologous macaque B-LCL (SIV; rhesus macaque (Macaca mulatta))
[7] = biological target: SIV NEF 160-176 peptide on autologous macaque B-LCL (SIV; rhesus macaque (Macaca mulatta))
[8] = biological target: SIV NEF 164-178 peptide on autologous macaque B-LCL (SIV; rhesus macaque (Macaca mulatta))
[9] = biological target: SIV NEF 125-138 peptide on autologous macaque B-LCL (SIV; rhesus macaque (Macaca mulatta))
[10] = biological target: SIV NEF 125-147 peptide (LP2) on autologous macaque B-LCL (SIV; rhesus macaque (Macaca mulatta))
[11] = biological target: SIV NEF 133-147 peptide on autologous macaque B-LCL (SIV; rhesus macaque (Macaca mulatta))
[12] = biological target: SIV NEF 155-178 peptide (LP3) on autologous macaque B-LCL (SIV; rhesus macaque (Macaca mulatta)); remark: listed apart in the source
[13] = biological target: SIV NEF 201-225 peptide (LP4) on autologous macaque B-LCL (SIV; rhesus macaque (Macaca mulatta))
[14] = biological target: SIV NEF 201-215 peptide on autologous macaque B-LCL (SIV; rhesus macaque (Macaca mulatta))
[15] = biological target: SIV NEF 211-225 peptide on autologous macaque B-LCL (SIV; rhesus macaque (Macaca mulatta))

CTL line from PBMC of immunized macaque RS4, restimulated with the mixture of the 7 peptides (cells without a defined receptor)
specific 51Cr release (CRT), E/T 60:1 and 20:1 (percent specific chromium release) [1]: 8 | specific 51Cr release (CRT), E/T 60:1 and 20:1 (percent specific chromium release) [2]: 57 | specific 51Cr release (CRT), E/T 60:1 and 20:1 (percent specific chromium release) [3]: 35

CTL line from PBMC of immunized macaque RS6, restimulated with the mixture of the 7 peptides (cells without a defined receptor)
specific 51Cr release (CRT), E/T 70:1 (% specific lysis) [4]: 40

CTL line from PBMC of immunized macaque RS7, restimulated with the mixture of the 7 peptides (cells without a defined receptor)
specific 51Cr release (CRT), E/T 70:1 (% specific lysis) [5]: 59

CTL line from PBMC of immunized macaque RS17, restimulated with the mixture of the 7 peptides (cells without a defined receptor)
specific 51Cr release (CRT), E/T 70:1 (% specific lysis) [4]: 44 | specific 51Cr release (CRT), E/T 60:1 and 20:1 (percent specific chromium release) [6]: 0 | specific 51Cr release (CRT), E/T 60:1 and 20:1 (percent specific chromium release) [7]: 0 | specific 51Cr release (CRT), E/T 60:1 and 20:1 (percent specific chromium release) [8]: 46

CTL line from PBMC of immunized macaque RS20, restimulated with the mixture of the 7 peptides (cells without a defined receptor)
specific 51Cr release (CRT), E/T 60:1 and 20:1 (percent specific chromium release) [9]: 85 | specific 51Cr release (CRT), E/T 60:1 and 20:1 (percent specific chromium release) [10]: 72 | specific 51Cr release (CRT), E/T 60:1 and 20:1 (percent specific chromium release) [11]: 4 | specific 51Cr release (CRT) (percent specific chromium release) [6]: 14 | specific 51Cr release (CRT) (percent specific chromium release) [12]: 87 | specific 51Cr release (CRT) (percent specific chromium release) [7]: 6 | specific 51Cr release (CRT) (percent specific chromium release) [8]: 49

CTL line from PBMC of immunized macaque RS21, restimulated with the mixture of the 7 peptides (cells without a defined receptor)
specific 51Cr release (CRT), E/T 70:1 (% specific lysis) [13]: 35

CTL line from PBMC of immunized macaque RS23, restimulated with the mixture of the 7 peptides (cells without a defined receptor)
specific 51Cr release (CRT), E/T 70:1 (% specific lysis) [13]: 42 | specific 51Cr release (CRT), E/T 60:1 and 20:1 (percent specific chromium release) [14]: 18 | specific 51Cr release (CRT), E/T 60:1 and 20:1 (percent specific chromium release) [15]: 0
